Key:
[1] = target: T1, Recombinant Human DLL4 (R&D Systems Cat#1506-D4/CF) (human, UniProt Q9NR61 27-524); experiment: MSD ECL multi-spot plate; Fab 8.1 nM; blank spot 435
T1 construct: also called delta-like protein 4

[2] = target: T2, rHuman Notch-1/Fc Chimera, CF (R&D Systems Cat#3647-TK) (human, UniProt P46531 19-526); experiment: as above
T2 construct: Fc part of the bought chimera not given

[3] = target: T3, rHuman IGF-1 sR, (IGF-1 sR), CF (R&D Systems Cat#391-GR) (human, UniProt P08069 31-932); experiment: as above
T3 construct: also called insulin-like growth factor-1 soluble receptor; IGF-R1

[4] = target: T4, rHuman HGF R/c-MET/Fc Chimera, CF (R&D Systems Cat#358-MT/CF) (human, UniProt P08581 25-932); experiment: as above
T4 construct: also called HGF R/Fc; hepatocyte growth factor receptor; Fc part of the bought chimera not given

[5] = target: T5, rHuman CD44/Fc Chimera, CF (R&D Systems Cat#3660-CD) (human, UniProt P16070 21-220); experiment: as above
T5 construct: Fc part of the bought chimera not given

[6] = target: T6, rHuman EGF R/Fc Chimera, CF (R&D Systems Cat#344-ER) (human, UniProt P00533 25-645); experiment: as above
T6 construct: also called epidermal growth factor receptor; Fc part of the bought chimera not given

[7] = target: T7, rHuman Erythropoietin R/Fc Chimera, CF (R&D Systems Cat#963-ER) (human, UniProt P19235 25-250); experiment: as above
T7 construct: also called EPO R/Fc; Epo R; Fc part of the bought chimera not given
T7 sequence: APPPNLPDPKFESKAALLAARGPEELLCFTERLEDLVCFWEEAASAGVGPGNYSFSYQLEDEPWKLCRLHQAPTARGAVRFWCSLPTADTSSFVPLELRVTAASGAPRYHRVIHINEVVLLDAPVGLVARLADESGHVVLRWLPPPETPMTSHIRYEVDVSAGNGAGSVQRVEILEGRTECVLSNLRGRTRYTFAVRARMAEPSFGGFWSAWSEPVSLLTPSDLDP

[8] = target: T8, rHuman ErbB2/Fc Chimera, CF (R&D Systems Cat#1129-ER) (human, UniProt P04626 23-652); experiment: as above
T8 construct: also called HER2/neu; human epidermal growth factor 2 receptor; Fc part of the bought chimera not given

[9] = target: T1, Recombinant Human DLL4 (R&D Systems …); experiment: MSD ECL multi-spot plate; Fab 2.0 nM; blank spot 316
[10] = target: T2, rHuman Notch-1/Fc Chimera, CF (R&D …); experiment: as above
[11] = target: T3, rHuman IGF-1 sR, (IGF-1 sR), CF (R&D …); experiment: as above
[12] = target: T4, rHuman HGF R/c-MET/Fc Chimera, CF (R&D …); experiment: as above
[13] = target: T5, rHuman CD44/Fc Chimera, CF (R&D Systems …); experiment: as above
[14] = target: T6, rHuman EGF R/Fc Chimera, CF (R&D …); experiment: as above
[15] = target: T7, rHuman Erythropoietin R/Fc Chimera, CF …; experiment: as above
[16] = target: T8, rHuman ErbB2/Fc Chimera, CF (R&D …); experiment: as above
[17] = target: T9, rHuman Erythropoietin R/Fc Chimera, CF (R&D Systems Cat#963-ER) (human, UniProt P19235 25-250); experiment: ECL (MSD multi-spot), antigen spotted on plate; Fab 1410 nM; blank spot 709
T9 construct: Bought reagent; also called EPO R/Fc; Epo R; Fc part of the bought chimera not given
T9 sequence: T7 sequence

[18] = target: T10, rHuman ErbB2/Fc Chimera, CF (R&D Systems Cat#1129-ER) (human, UniProt P04626 23-652); experiment: as above
T10 construct: Bought reagent; also called HER2/neu; human epidermal growth factor 2 receptor; Fc part of the bought chimera not given

[19] = target: T11, rHuman IGF-1 sR (IGF-1 sR), CF (R&D Systems Cat#391-GR) (human, UniProt P08069 31-932); experiment: ECL (MSD Multi-Spot) binding assay, antigen spotted on plate; Fab 6 nM; blank spot 191
T11 construct: Bought soluble receptor; also called insulin-like growth factor-1 soluble receptor; IGF-R1

[20] = target: T12, rHuman EGF R/Fc Chimera, CF (R&D Systems Cat#344-ER) (human, UniProt P00533 25-645); experiment: as above
T12 construct: Bought Fc chimera; also called epidermal growth factor receptor; Fc part of the bought chimera not given
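Also: blank spot per well as comparator with Hit at signal to blank ratio of 4 or more.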

B1: Fab VH1-8_IGHD2-2*01_IGHJ6*01 & L12_IGKJ1*01 (Fab, V domains shown)
VH: QVQLVQSGAEVKKPGASVKVSCKASGYTFTSYDINWVRQATGQGLEWMGWMNPNSGNTGYAQKFQGRVTMTRNTSISTAYMELSSLRSEDTAVYYCARGGYCSSTSCYADYYYYYGMDVWGQGTTVTVSS
VL: not shown
- ECL signal [1]: 1550 ECL signal
- ECL signal [2]: 612 ECL signal
- ECL signal [3]: 518 ECL signal
- ECL signal [4]: 551 ECL signal
- ECL signal [5]: 528 ECL signal
- ECL signal [6]: 560 ECL signal
- ECL signal [7]: 660 ECL signal
- ECL signal [8]: 557 ECL signal
- ECL signal [9]: 605 ECL signal
- ECL signal [10]: 539 ECL signal
- ECL signal [11]: 367 ECL signal
- ECL signal [12]: 356 ECL signal
- ECL signal [13]: 447 ECL signal
- ECL signal [14]: 424 ECL signal
- ECL signal [15]: 433 ECL signal
- ECL signal [16]: 382 ECL signal

B2: Fab VH1-46_IGHD3-10*01_IGHJ4*01 & B3_IGKJ1*01 (Fab, V domains shown)
VH: QVQLVQSGAEVKKPGASVKVSCKASGYTFTSYYMHWVRQAPGQGLEWMGIINPSGGSTSYAQKFQGRVTMTRDTSTSTVYMELSSLRSEDTAVYYCAREYYYGSGSYYNDYFDYWGQGTLVTVSS
VL: not shown
notes: also called IGHV1-46*01
- ECL signal [17]: 4310
- ECL signal [18]: 932

B3: Fab VH5-51_IGHD5-18*01>3_IGHJ4*01 & V3-4_IGLJ1*01 (Fab, V domains shown)
VH: EVQLVQSGAEVKKPGESLKISCKGSGYSFTSYWIGWVRQMPGKGLEWMGIIYPGDSDTRYSPSFQGQVTISADKSISTAYLQWSSLKASDTAMYYCARRGYSYGYDYFDYWGQGTLVTVSS
VL: QTVVTQEPSFSVSPGGTVTLTCGLSSGSVSTSYYPSWYQQTPGQAPRTLIYSTNTRSSGVPDRFSGSILGNKAALTITGAQADDESDYYCVLYMGSGISYVFGTGTKVTVL
notes: Tested as a Fab made in E. coli; also called IGHV5-51*03
- ECL signal [19]: 854
- ECL signal [20]: 742

Source: patent US20120058906A1 (published 2012)
